This data set relates to O=[N+]([O-])c1ccccc1O[C@@H]1O[C@H](CO)[C@H](O)[C@H](O)[C@H]1O. Put plainly: purified protein. In kind it is biochemical, Pseudomonas tritici. The settings on record: 50 mM HEPES pH 7.5, 50 °C, 5 min, 0.3-60 mM ONPG, 1 mM Mg2+ probably present.

Consider “Pstr β-galactosidase (Pseudomonas tritici)”, for which the Michaelis constant (Km) is 3.0 mM and the catalytic constant (kcat) was 38638.8 min⁻¹.

The Km is the concentration of substrate that gives half-maximal velocity. As a reminder, the kcat is the maximal rate divided by the concentration of active sites.

For the origin of these results see PMC12428694, “A New β-Galactosidase from Pseudomonas tritici SWRI145 for Efficient Bioproduction of Galactooligosaccharides” (Foods, 2025).
